Measurements as given in patent publication US20220064294A1 (ARCUS BIOSCIENCES, published 2022).

T1: human TIGIT, full length, on cells (human, UniProt Q495A1 22-244)
T1 construct: also called hTIGIT; hTIGIT-CHO
T1 sequence: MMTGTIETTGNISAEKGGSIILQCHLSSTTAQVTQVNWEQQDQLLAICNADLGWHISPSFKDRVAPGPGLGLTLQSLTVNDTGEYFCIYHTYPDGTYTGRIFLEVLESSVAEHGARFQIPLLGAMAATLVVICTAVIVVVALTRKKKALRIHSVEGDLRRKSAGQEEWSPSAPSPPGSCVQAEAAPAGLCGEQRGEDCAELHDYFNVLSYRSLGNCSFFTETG

T2: cTIGIT-His (cynomolgus monkey)
T2 construct: also called His-tagged cyno TIGIT protein extracellular domain; soluble cTIGIT-His
T2 chain: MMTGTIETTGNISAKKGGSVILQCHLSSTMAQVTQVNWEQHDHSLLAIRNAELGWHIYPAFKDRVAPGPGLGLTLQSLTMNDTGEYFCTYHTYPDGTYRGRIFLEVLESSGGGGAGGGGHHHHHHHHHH

T3: hTIGIT-His (human)
T3 construct: also called His-tagged human TIGIT protein extracellular domain; soluble hTIGIT-His
T3 chain: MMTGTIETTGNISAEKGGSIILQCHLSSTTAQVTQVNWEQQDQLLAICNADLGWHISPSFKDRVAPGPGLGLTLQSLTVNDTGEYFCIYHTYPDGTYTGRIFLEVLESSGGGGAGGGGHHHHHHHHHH


Legend:
[1] = target: T1, human TIGIT, full length, on cells; experiment: flow cytometry, inhibition of hCD155-Fc binding to CHO-hTIGIT cells
Description: (§1) These clones were further expanded, and antibodies were purified using a Protein G column. These purified antibodies were tested for binding to human and cyno TIGIT expressed on cell surface by flow cytometry. Stable CHO-K1 cell lines expressing full length human TIGIT clone 2A7 (Swiss-Prot Q495A1; SEQ ID NO: 80) or full length cyno TIGIT clone C10 (Swiss-Prot A0A2K5UW92; SEQ ID NO: 84) were developed. For the flow assay, cells were collected and incubated in 100 μL of HBSS buffer in the presence (or absence) of various concentrations of antibodies for 1 hr at 4° C. After washing with HBSS, antibody binding on cells was detected with 2 μg/mL of Alexa488-labeled goat anti-mouse IgG antibody (ThermoFisher Scientific, Cat #A-11001) for 30 min at 4° C. Cells were then washed and resuspended in PBS and subjected to flow cytometry using an Attune NxT flow cytometer (ThermoFisher Scientific, Waltham, Mass.). The geometric mean of the fluorescence intensity was obtained for the whole single cell population. Antibodies capable of binding to both human and cyno TIGIT expressed on cell surface were further tested for their blocking activity against recombinant human CD155 binding to human TIGIT on the surface of CHO cells. CHO-hTIGIT cells (10⁵ cells) were incubated with 2.5 μg/mL hCD155-Fc protein in the presence of various concentrations of antibody at room temperature for 1 hr. […] Cells were then washed and subjected to flow cytometry analysis.

[2] = target: T4, cynomolgus monkey TIGIT, full length, on cells (cynomolgus monkey); experiment: flow cytometry on CHO-K1 cells expressing cyno TIGIT
T4 construct: Whole entry of 312 amino acids; also called cyno TIGIT; cTIGIT
Description: as §1

[3] = target: T1, human TIGIT, full length, on cells; experiment: flow cytometry on CHO-K1 cells expressing human TIGIT
Description: as §1

cTIGIT-His = target: T2, cTIGIT-His; experiment: SPR, Biacore 8K, Fab-SASA supernatant captured on BSA chip, cTIGIT-His as analyte
Source text: (§2) Oligonucleotides were designed and synthesized as Fab fragments with human IgG1/kappa constant domains for the two VH and two VL grafted human acceptors and inserted into a vector system for high throughput screening of expression levels and biophysical properties, without the need for protein purification (Zhang & Hirama, Patent Application Publication US 2012/0178110). All four combinations of VH1 (SEQ ID NO: 76) or VH2 (SEQ ID NO: 78) with VL1 (SEQ ID NO: 79) or VL2 (SEQ ID NO: 77) (FIGS. 1J-1M) were screened along with a chimera Fab mVH+mVL constructed from the mouse 24F8VH (SEQ ID NO: 5) & 24F8VL (SEQ ID NO: 6) domains and human IgG1/kappa Fab constant domains. Supernatants of the Fabs, secreted as a SASA (single-domain antibody against serum albumin) fusion proteins were analyzed by surface plasmon resonance (SPR) using a Biacore 8K instrument with Fab capture using an BSA coated chip and soluble His-tagged TIGIT as the analyte. The kinetic binding data for human and cyno TIGIT are shown in Table 9 for the five Fab fragments.

hTIGIT-His = target: T3, hTIGIT-His; experiment: SPR, Biacore 8K, Fab-SASA supernatant captured on BSA chip, hTIGIT-His as analyte
Source text: as §2

Binder | IC50 [1] [nM] | EC50 [2] [nM] | EC50 [3] [nM] | Kd (cTIGIT-His) [nM] | koff (cTIGIT-His) [s⁻¹] | kon (cTIGIT-His) [M⁻¹ s⁻¹] | Kd (hTIGIT-His) [nM] | koff (hTIGIT-His) [s⁻¹] | kon (hTIGIT-His) [M⁻¹ s⁻¹]
22B22 (antibody, V domains shown, Mouse monoclonal antibody purified from hybridoma on Protein G; also called mAb 22B22; mouse anti-TIGIT clone 22B22) VH: EVQLVESGGGLVKPGGSLKLSCAASGFTFSSYAMSWVRQSPEKRLEWVAEISSGGSYTYYPDTVTGRFTISRDNAKNTLYLEMSSLRSEDTAMYYCARKRRDYYAMDYWGQGTSVTVSS VL: DVQITQSPSYLAASPGETITINCRASKSISKYLAWYQEKPGKTNKLLIYSGSTLQSGIPSRFSGSGSGTDFTLTISSLEPEDFAMYYCQQHNEYPWTFGGGTKLEIK | 0.83 | 0.58 | 0.507 | – | – | – | – | – | –
21B9 (antibody, V domains shown, Mouse monoclonal antibody purified from hybridoma on Protein G; also called mAb 21B9; mouse anti-TIGIT clone 21B9) VH: EVQLVESGGGLVKPGGSLKLSCTASGFTFSSYAMSWVRQSPEKRLEWVAEISSGGSYTYYTDTVTGRFTISRDNAKNTLYLEMSSLRSEDTAMYYCARKRRDYYGMDYWGQGTSVTVSS VL: DVQITQSPSYLAASPGETITINCRASKSISKYLAWYQEKPGKTNKLLIYSGSTLQTGIPSRFSGSGSGTDFTLTISSLEPEDFAMYYCQQHNEYPWTFGGGTKLEIK | 1.66 | 0.631 | 0.506 | – | – | – | – | – | –
21B16 (antibody, V domains shown, Mouse monoclonal antibody purified from hybridoma on Protein G; also called mAb 21B16; mouse anti-TIGIT clone 21B16) VH: EVQLVESGGGLVKPGGSLKLSCAASGFTFSTYAMSWVRQSPEKRLEWVAEISSGGTYTYFPDTVTGRFTISRDNAKNTLYLEMSSLRSEDTAMYYCARKRRDYYAMDYWGQGTSVTVSS VL: DVQITQSPSYLAASPGETITINCRASKSISKYLAWYQEKPGKTNKLLIYSGSTLQSGIPSRFSGSGSGTDFTLTISSLEPEDFAVYYCQQHNEYPWTFGGGTKLEIK | 1.15 | 1.2 | 0.498 | – | – | – | – | – | –
28O12 (antibody, V domains shown, Mouse monoclonal antibody purified from hybridoma on Protein G; also called mAb 28O12; mouse anti-TIGIT clone 28O12) VH: EVQLVESGGGLVKPGGSLKLSCAASGFTFSNYAMSWVRQSPEKRLEWVAEISGGGSYTYHPDTVTGRFTISRDNAKNTLYLEMSSLRSEDTAMYYCARKRRDYYAMDYWGQGTSVTVSS VL: DVQITQSPSYLAASPGETITINCRASKSISKYLAWYQEKPGKTNKLLIYSGSTLQSGIPSRFSGSGSGTDFTLTISSLEPEDFAMYYCQQHNEYPWTFGGGTKLEIK | 1.16 | 0.71 | 0.638 | – | – | – | – | – | –
chimera Fab mVH+mVL (mouse 24F8VH and 24F8VL with human IgG1/kappa Fab constant domains) (Fab, V domains shown, also called mouse/human chimera Fab) VH: DVQLQESGPDLVKPSQSLSLTCTVTGYSITSGYSWHWIRQFPGNKLDWMGYVHYSGSTNYNPSLKSRISITRDTSKNQFFLQLNSVTTEDTATFYCARMDYGNYGGAMDYWGQGTSVTVSS VL: EIVMTQSHKFMSTSVGDRVSITCKASQDVRTAVAWYQQKPGQSPKLLIYSASYRYTGVPDRFTGSGSGTDFTFTISSVQAEDLAVYYCQQYYSTQWTFGGGTKLEIK | – | – | – | 0.474 | 0.000728 | 1.54e+06 | 0.00127 | 2.37e-06 | 1.86e+06
Hu24F8.1 Fab (Fab, V domains shown, Fab with human IgG1/kappa constant domains, secreted as a SASA fusion protein and tested as supernatant; also called VH1 + VL2) VH: QVQLQESGPGLVKPSETLSLTCAVYGYSITSGYSWHWIRQPPGKGLEWIGYVHYSGSTNYNPSLKSRVTISVDTSKNQFSLKLSSVTAADTAVYYCARMDYGNYGGAMDYWGQGTLVTVSS VL: EIVMTQSPATLSVSPGERATLSCKASQDVRTAVAWYQQKPGQAPRLLIYSASYRYTGIPARFSGSGSGTEFTLTISSLQSEDFAVYYCQQYYSTQWTFGGGTKVEIK | – | – | – | 1.26 | 0.0014 | 1.11e+06 | 0.0361 | 0.000111 | 3.08e+06
Hu24F8.2 Fab (Fab, V domains shown, Fab with human IgG1/kappa constant domains, secreted as a SASA fusion protein and tested as supernatant; Not the same preparation as Fab24F8 (papain fragment); also called VH2 + VL2) VH: QVQLQESGPGLVKPSGTLSLTCAVSGYSITSGYSWHWVRQPPGKGLEWIGYVHYSGSTNYNPSLKSRVTISVDKSKNQFSLKLSSVTAADTAVYYCARMDYGNYGGAMDYWGQGTLVTVSS VL: EIVMTQSPATLSVSPGERATLSCKASQDVRTAVAWYQQKPGQAPRLLIYSASYRYTGIPARFSGSGSGTEFTLTISSLQSEDFAVYYCQQYYSTQWTFGGGTKVEIK | – | – | – | 1.09 | 0.000808 | 742000 | 0.045 | 9.39e-05 | 2.08e+06
Hu24F8.3 Fab (Fab, V domains shown, Fab with human IgG1/kappa constant domains, secreted as a SASA fusion protein and tested as supernatant; also called VH2 + VL1) VH: QVQLQESGPGLVKPSGTLSLTCAVSGYSITSGYSWHWVRQPPGKGLEWIGYVHYSGSTNYNPSLKSRVTISVDKSKNQFSLKLSSVTAADTAVYYCARMDYGNYGGAMDYWGQGTLVTVSS VL: DIQMTQSPSSLSASVGDRVTITCKASQDVRTAVAWYQQKPGKAPKLLIYSASYRYTGVPSRFSGSGSGTDFTFTISSLQPEDIATYYCQQYYSTQWTFGGGTKLEIK | – | – | – | 6 | 0.00585 | 974000 | 0.242 | 0.000481 | 1.99e+06
Hu24F8.4 Fab (Fab, V domains shown, Fab with human IgG1/kappa constant domains, secreted as a SASA fusion protein and tested as supernatant; also called VH1 + VL1) VH: QVQLQESGPGLVKPSETLSLTCAVYGYSITSGYSWHWIRQPPGKGLEWIGYVHYSGSTNYNPSLKSRVTISVDTSKNQFSLKLSSVTAADTAVYYCARMDYGNYGGAMDYWGQGTLVTVSS VL: DIQMTQSPSSLSASVGDRVTITCKASQDVRTAVAWYQQKPGKAPKLLIYSASYRYTGVPSRFSGSGSGTDFTFTISSLQPEDIATYYCQQYYSTQWTFGGGTKLEIK | – | – | – | 9.81 | 0.0133 | 1.35e+06 | 0.28 | 0.000855 | 3.05e+06
5J24 (antibody, V domains shown, Mouse monoclonal antibody purified from hybridoma on Protein G; also called mAb 5J24; mouse anti-TIGIT clone 5J24) VH: QVQLQQSGAELVRPGTSVKMSCKAAGYTFTNHWIGWVKQRPGHGLEWIGDIYPGGGYTNYNEKFKGKATLTADTSSSTAYMYLSSLTSEDSAIYYCARSYGYDLYAMDYWGQGTSVTVSS VL: DIQMTQSPSSLSASLGERVSLTCRASQEISGYLSWLQQKPDGTIKRLIYAASTLGSGVPKRFSGSRSGSDYSLTISSLESEDFADYYCLQYDSYPFTFGAGTKLELK | 1.46 | 1.63 | 0.704 | – | – | – | – | – | –
21F8 (antibody, V domains shown, Mouse monoclonal antibody purified from hybridoma on Protein G; also called mAb 21F8; mouse anti-TIGIT clone 21F8) VH: DVQLQESGPGLVKPSQSLSLTCTVTGYSITSDYAWNWIRQFPGNKLEWMGYISYSGSTSYNPSLKSRISITRDTSKNQFFLQLNSVTTEDTATYYCARFMITTFAMDYWGQGTAVTVSS VL: DIVMTQSHKFMSTSVGDRVSITCKASQHVSTAVAWYQQKPGQSPKLLIYSAPYRYTGVPDRFTGSGSGTDFTFTISSVQAEDLAVYYCQQHYNTLWTFGGGTKLEIK | 1.67 | 1.79 | 0.952 | – | – | – | – | – | –
28P24 (antibody, V domains shown, Mouse monoclonal antibody purified from hybridoma on Protein G; also called mAb 28P24; mouse anti-TIGIT clone 28P24) VH: QVQLQQSGAELVRPGTSVKMSCKAAGYTFTNYFIGWVKQRPGHGLDWIGDIYPGGGYTNYNEKFKGKATLTADTSSSTAYMQLSSLTSEDSAIYYCVRFYGNYVFAYWGQGTLVTVSA VL: DVQITQSPSCLAASPGETITINCRASKTISKYLAWYQEKPGKTNKLLIYSGSTLQSGIPSRFSGSGSGTDFTLTISSLEPEDFAMYYCQQHNEYPWTFGGGTKLEIK | 1.7 | 1.26 | 0.466 | – | – | – | – | – | –
24F8 (antibody, V domains shown, Mouse monoclonal antibody purified from hybridoma on Protein G; also called mAb 24F8; mouse anti-TIGIT clone 24F8) VH: DVQLQESGPDLVKPSQSLSLTCTVTGYSITSGYSWHWIRQFPGNKLDWMGYVHYSGSTNYNPSLKSRISITRDTSKNQFFLQLNSVTTEDTATFYCARMDYGNYGGAMDYWGQGTSVTVSS VL: EIVMTQSHKFMSTSVGDRVSITCKASQDVRTAVAWYQQKPGQSPKLLIYSASYRYTGVPDRFTGSGSGTDFTFTISSVQAEDLAVYYCQQYYSTQWTFGGGTKLEIK | 1.79 | 1.85 | 1.31 | – | – | – | – | – | –
